In patent CN114409788A (WEST CHINA HOSPITAL OF SICHUAN UNIV, dated 2022):

How the values were obtained:
[1] = biological target: T1, human CD38 Protein (ECD, His Tag) (human, UniProt P28907 43-300); assay: ELISA, human CD38 ECD-His coated on plate, detection with HRP goat anti-mouse IgM, OD450
T1 construct: extracellular domain; Commercial recombinant antigen coated on the ELISA plate at 0.5 ug/ml; also called 未标记抗原; not shown: His tag
T1 sequence (looked up): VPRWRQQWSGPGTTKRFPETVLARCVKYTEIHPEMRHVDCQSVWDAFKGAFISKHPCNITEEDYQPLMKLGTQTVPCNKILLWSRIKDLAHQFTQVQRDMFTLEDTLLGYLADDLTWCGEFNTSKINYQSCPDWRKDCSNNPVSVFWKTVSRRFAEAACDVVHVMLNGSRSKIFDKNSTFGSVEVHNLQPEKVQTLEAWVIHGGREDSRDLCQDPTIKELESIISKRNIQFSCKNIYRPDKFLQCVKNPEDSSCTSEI

[2] = biological target: T2, mono-Mac-6细胞表面的CD38 (UniProt P28907 1-300, limits assumed); assay: flow cytometry on mono-Mac-6 cells, antibody production supernatant, APC anti-IgM secondary antibody
T2 construct: whole, on cells; also called CD38 on mono-Mac-6 cells
T2 sequence (looked up): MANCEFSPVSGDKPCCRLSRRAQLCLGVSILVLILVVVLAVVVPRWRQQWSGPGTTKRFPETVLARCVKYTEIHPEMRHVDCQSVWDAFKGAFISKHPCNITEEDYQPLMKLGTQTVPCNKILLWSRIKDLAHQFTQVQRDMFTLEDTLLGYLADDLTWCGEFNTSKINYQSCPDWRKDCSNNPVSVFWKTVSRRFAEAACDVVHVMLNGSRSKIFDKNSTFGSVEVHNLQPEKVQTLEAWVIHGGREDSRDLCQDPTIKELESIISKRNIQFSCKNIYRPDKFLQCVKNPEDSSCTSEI

B1: 单克隆抗体70B5 (抗CD38的单克隆抗体) (antibody, V domains shown)
VH: EVQLQQSGPELVKPGASVKISCKASGYTFTDYYMNWVKQSHGKSLEWIGDINPNNGGTSYNQKFKGKATLTVDKSSSTAYMELRSLTSEDSAVYYCARGYYSNPFDVWGTGTTVTVSS
VL: DIQMTQSPSSLSASLGERVSLTCRASQDIGSSLNWLQQEPDGTIKRLIYATSSLDSGVPKRFSGSRSGSDYSLTISSLESEDFVDYYCLQYASSPLTFGAGTKLELK
notes: also called 70B5抗体
- binding result [1]: binds
- binding result [2]: binds
